Results: paper PMC11868491

Legend:
[1] = target: T1, His6-Crz1(N339-S678) (Saccharomyces cerevisiae BY4743, UniProt P53968 339-678); test: EMSA
[2] = target: T1, His6-Crz1(N339-S678); test: competition

T1 sequence (P53968 339-678): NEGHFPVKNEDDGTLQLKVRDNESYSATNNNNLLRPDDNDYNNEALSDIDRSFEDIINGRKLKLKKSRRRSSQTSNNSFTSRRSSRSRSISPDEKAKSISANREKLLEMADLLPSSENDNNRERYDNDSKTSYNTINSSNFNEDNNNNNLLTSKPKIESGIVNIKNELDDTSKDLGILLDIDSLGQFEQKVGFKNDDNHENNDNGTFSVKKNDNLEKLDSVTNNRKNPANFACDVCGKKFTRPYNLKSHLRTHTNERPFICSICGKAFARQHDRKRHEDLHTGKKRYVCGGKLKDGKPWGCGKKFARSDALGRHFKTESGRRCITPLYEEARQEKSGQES

B1: EMSA_probe-Crz1/CMK2-F/R (DIG-labeled) (dsDNA)
DNA 1: AACGCAGCGCGAAGAGAATAATTGAGGCTTATCTTAGAACCCTGCCCCC
DNA 2: GGGGGCAGGGTTCTAAGATAAGCCTCAATTATTCTCTTCGCGCTGCGTT
[1]
  binding result: binds

B2: EMSA_probe-Crz1/CMK2-F/R (unlabeled competitor) (dsDNA)
DNA 1: AACGCAGCGCGAAGAGAATAATTGAGGCTTATCTTAGAACCCTGCCCCC
DNA 2: GGGGGCAGGGTTCTAAGATAAGCCTCAATTATTCTCTTCGCGCTGCGTT
[2]
  binding result: binds
